In patent US20240366776A1 (Hoffmann-La Roche, published 2024):

Tests used:
[1] = biological target: PD-1 (human, UniProt Q15116 25-167, limits assumed); assay: HTRF
[2] = biological target: T1, human IL-2 (human, UniProt P60568 21-153, biotin-labeled in the IL2RB blocking assay); assay: HTRF
T1 construct: also called biotin-labeled IL-2 (Acro Biosystems IL2-H82E4)

[3] = biological target: T1, human IL-2; assay: HTRF IL-2:IL2RB
[4] = biological target: PD-1-Fc (UniProt Q15116 25-167, limits assumed); assay: cell-based or functional assay
Sequence of PD-1-Fc (Q15116 25-167 limits assumed): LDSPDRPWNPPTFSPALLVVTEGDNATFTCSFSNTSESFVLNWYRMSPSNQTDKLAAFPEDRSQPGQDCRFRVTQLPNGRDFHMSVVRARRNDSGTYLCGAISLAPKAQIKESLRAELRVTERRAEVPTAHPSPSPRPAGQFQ

Sequence of PD-1 (Q15116 25-167 limits assumed): as above
T1 sequence (P60568 21-153 limits assumed): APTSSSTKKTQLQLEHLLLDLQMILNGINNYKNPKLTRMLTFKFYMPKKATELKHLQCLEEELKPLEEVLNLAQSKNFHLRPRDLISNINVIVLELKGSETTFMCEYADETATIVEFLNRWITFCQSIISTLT

Row | PD1 Binding [1] | IL2 Binding [2] | IL2RB Blocking [3] | IL-2 activity EC50, HEK-Blue IL-2 reporter cells, IgG1 coated wells (control) [4] [nM] | IL-2 activity EC50, HEK-Blue IL-2 reporter cells, PD-1 coated wells [4] [pM] | Binder
1 | 50 | 247 | 1110 |  |  | PD1-IL2-R06-E04 (SEQ ID NO: 33) (scFv, V5-tagged in the assay) scFv: QVQLVQSGAEVKKPGASVKVSCKASGYTFTRYYIHWVRQAPGQGLEWMGWINAYNGDTNYAQKLQGRVTMTRDTSTSTVYMELSSLRSEDTAVYYCARDSYYYDSFDYWGQGTLVTVSSASGGGGSGGGGSGGGGSHASDIQMTQSPSSLSASVGDRVTITCRASQTITDWLAWYQQKPGKAPKLLIYGASNLQGGVPSRFSGSGSGTDFTLTISSLQPEDFATYYCQQYYSSWTFGQGTKVEIK
2 |  |  |  | 1.67 | 118 | AF4389 (other) heavy 1: APTSSSTKKTQLQLEHLLLDLQMILNGINNYKNPKLTDMLTFEFYMPKKATELKHLQCLERELKPLEEVLNLAQSKNFHLRPRDLISNINVIVLELKGSETTFMCEYADETATIVEFLNRWITFCQSIISTLTGGGGSGGGGSGGGGSGGGGSQVQLVQSGAEVKKPGASVKVSCKASGHTFTRYYMHWVRQAPGQGLEWMGIINPSGGYATYAQKFQGRVTMTRDTSTSTVYMELSSLRSEDTAVYYCASGLFIWGQGTLVTVSSAKTTAPSVYPLAPVCGDTTGSSVTLGCLVKGYFPEPVTLTWNSGSLSSGVHTFPAVLQSDLYTLSSSVTVTSSTWPSQSITCNVAHPASSTKVDKKIEPRGPTIKPCPPCKCPAPNAAGGPSVFIFPPKIKDVLMISLSPIVTCVVVDVSEDDPDVQISWFVNNVEVHTAQTQTHREDYNSTLRVVSALPIQHQDWMSGKEFKCKVNNKDLGAPIERTISKPKGSVRAPQVYVLPPPEEEMTKKQVTLTCMVTDFMPEDIYVEWTNNGKTELNYKNTEPVLDSDGSYFMYSDLRVEKKNWVERNSYSCSVVHEGLHNHHTTESFSRTPGK heavy 2: QVQLVQSGAEVKKPGASVKVSCKASGHTFTRYYMHWVRQAPGQGLEWMGIINPSGGYATYAQKFQGRVTMTRDTSTSTVYMELSSLRSEDTAVYYCASGLFIWGQGTLVTVSSAKTTAPSVYPLAPVCGDTTGSSVTLGCLVKGYFPEPVTLTWNSGSLSSGVHTFPAVLQSDLYTLSSSVTVTSSTWPSQSITCNVAHPASSTKVDKKIEPRGPTIKPCPPCKCPAPNAAGGPSVFIFPPKIKDVLMISLSPIVTCVVVDVSEDDPDVQISWFVNNVEVHTAQTQTHREDYNSTLRVVSALPIQHQDWMSGKEFKCKVNNKDLGAPIERTISKPKGSVRAPQVYVLPPPEKEMTKKQVSLTCLVKDFMPEDIYVEWTNNGKTELNYKNTEPVLKSDGSYFMYSKLTVEKKNWVERNSYSCSVVHEGLHNHHTTKSFSRTPGGGGSGGGSHHHHHH light: DIQMTQSPSSLSASVGDRVTITCRASQSINSWLAWYQQKPGKAPKLLIYATSTLESGVPSRFSGSGSGTDFTLTISSLQPEDFATYYCQQYYRFPVTFGQGTKVEIKRADAAPTVSIFPPSSEQLTSGGASVVCFLNNFYPKDINVKWKIDGSERQNGVLNSWTDQDSKDSTYSMSSTLTLTKDEYERHNSYTCEATHKTSTSPIVKSFNRNEC
3 | 995 | 520 | 1610 |  |  | PD1-IL2-R02-A08 (scFv, V domains shown, cf) VH: QVQLVQSGAEVKKPGASVKVSCKVSGYTFTSYDINWVRQAPGQGLEWMGWINPNSGDTGYAQKFQGRVTMTRDTSTSTVYMELSSLRSEDTAVYYCARDTGLGYYYGSGDFDYWGQGTLVTVSS VL: DIQMTQSPSSLSASVGDRVTITCQASQDIHNYLNWYQQKPGKAPKLLIYDVSNLETGVPSRFSGSGSGTDFTLTISSLQPEDFATYYCQQAISFPLTFGGGTKVEIK
4 | 653 | 19 | 1730 |  |  | PD1-R07-A05 (scFv) scFv: QVQLVQSGAEVKKPGASVKVSCKASGYTFTTYYVHWVRQAPGQGLEWMGIINPSGGSTSYAQNFQGRVTMTRDTSTSTVYMELSSLRSEDTAVYYCASGWDVWGQGTTVTVSSASGGGGSGGGGSGGGGSHASEIVMTQSPATLSVSPGERATLSCRASQSVNTYLAWYQQKPGQAPRLLIYGASTRATGIPARFSGSGSGTEFTLTISSLQSEDFAVYYCQQYGSSPVTFGQGTRLEIK
